# Patent US20200181257A1 (Chugai, published 2020)
# Numbering of substitutions follows the chain as printed. In names and notes the source's numbering stands.
# T1: human Fcγ receptor hFcgRIIb (human, UniProt P31994 43-217, limits assumed)
# T1 construct: Construct used in the SPR assay is not described; also called FcγRIIb; FcγIIB
# T1 sequence: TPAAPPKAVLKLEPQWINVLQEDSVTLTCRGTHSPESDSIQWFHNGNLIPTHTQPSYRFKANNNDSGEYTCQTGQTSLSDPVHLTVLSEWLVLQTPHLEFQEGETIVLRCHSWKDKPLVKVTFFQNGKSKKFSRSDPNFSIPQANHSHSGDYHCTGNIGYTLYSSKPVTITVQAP
# T2: human Fcγ receptor hFcgRIIa (H) (human, UniProt P12318 36-217)
# T2 construct: also called FcγRIIa (type H); FcγIIA
# T2 sequence: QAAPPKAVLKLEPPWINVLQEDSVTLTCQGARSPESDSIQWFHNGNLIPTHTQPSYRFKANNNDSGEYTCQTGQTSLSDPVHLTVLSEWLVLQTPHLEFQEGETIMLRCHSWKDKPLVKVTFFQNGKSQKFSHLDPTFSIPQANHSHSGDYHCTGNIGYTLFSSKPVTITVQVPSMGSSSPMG
# T3: human Fcγ receptor hFcgRIIa (R) (human, UniProt P12318 36-217)
# T3 construct: also called FcγRIIa (type R); FcγIIA
# T3 chain: T2 sequence with H133R
# B1: TS20 (antibody)
# heavy: QVQLQESGPGLVRPSQTLSLTCTVSGYSITSDHAWSWVRQPPGRGLEWIGYISYSGITTYNPSLKSRVTMLRDTSKNQFSLRLSSVTAADTAVYYCARSLARTTAMDYWGQGSLVTVSSASTKGPSVFPLAPSSKSTSGGTAALGCLVKDYFPEPVTVSWNSGALTSGVHTFPAVLQSSGLYSLSSVVTVPSSSLGTQTYICNVNHKPSNTKVDKKVEPKSCDKTHTCPPCPAPELLGGPSVFLFPPKPKDTLMISRTPEVTCVVVDVSHEDPEVKFNWYVDGVEVHNAKTKPREEMYNSTYRVVSVLTVLHQDWLNGKEYKCKVSNSALPHPIEKTISKAKGQPREPQVYTLPPSRDELTKNQVSLTCLVKGFYPSDIAVEWESNGQPENNYKTTPPVLDSDGSFFLYSKLTVDKSRWQQGNVFSCSVMHEALHNHYTQKSLSLSP
# light: not shown
# notes: anti-IL6R IgG1, G1d with Q295M/K326S/A330H (EU)
# B2: TS28 (antibody)
# heavy: B1 heavy with L236K, L237K, S241K, H270K, D272F, Y298G, S300G, N327G, S328K, H332A
# light: not shown
# notes: anti-IL6R IgG1, G1d with L234K/L235K/S239K/H268K/D270F/Q295M/Y296G/S298G/N325G (EU)
# B3: TS35 (antibody)
# heavy: B1 heavy with L236K, L237K, Y298G, S300G, N327H, S328K, H332A
# light: not shown
# notes: anti-IL6R IgG1, G1d with L234K/L235K/Q295M/Y296G/S298G/N325H (EU)
# B4: TS38 (antibody)
# heavy: B1 heavy with L236K, L237R, S241K, Y298G, S300G, N327G, S328K, H332A
# light: not shown
# notes: anti-IL6R IgG1, G1d with L234K/L235R/S239K/Q295M/Y296G/S298G/N325G (EU)
# B5: TS25 (antibody)
# heavy: B1 heavy with S328A
# light: not shown
# notes: anti-IL6R IgG1, G1d with Q295M/K326A/A330H (EU)
# B6: TS29 (antibody)
# heavy: B1 heavy with L236K, L237K, S241K, H270K, D272F, Y298G, S300G, N327H, S328K, H332A
# light: not shown
# notes: anti-IL6R IgG1, G1d with L234K/L235K/S239K/H268K/D270F/Q295M/Y296G/S298G/N325H (EU)
# B7: TS39 (antibody)
# heavy: B1 heavy with L236K, L237R, S241K, Y298G, S300G, N327H, S328K, H332A
# light: not shown
# notes: anti-IL6R IgG1, G1d with L234K/L235R/S239K/Q295M/Y296G/S298G/N325H (EU)
# B8: TS26 (antibody)
# heavy: B1 heavy with M297L, H332Y
# light: not shown
# notes: anti-IL6R IgG1, G1d with Q295L/K326S/A330Y (EU)
# B9: TS21 (antibody)
# heavy: B1 heavy with S328A, H332Y
# light: not shown
# notes: anti-IL6R IgG1, G1d with Q295M/K326A/A330Y (EU)
# B10: TS31 (antibody)
# heavy: B1 heavy with L236K, L237K, S241K, Y298G, S300G, N327H, S328K, H332A
# light: not shown
# notes: anti-IL6R IgG1, G1d with L234K/L235K/S239K/Q295M/Y296G/S298G/N325H (EU)
# B11: TS27 (antibody)
# heavy: B1 heavy with M297L, S328A
# light: not shown
# notes: anti-IL6R IgG1, G1d with Q295L/K326A/A330H (EU)
# B12: TS36 (antibody)
# heavy: B1 heavy with L236K, L237R, S241K, H270K, D272F, Y298G, S300G, N327G, S328K, H332A
# light: not shown
# notes: anti-IL6R IgG1, G1d with L234K/L235R/S239K/H268K/D270F/Q295M/Y296G/S298G/N325G (EU)
# B13: TS37 (antibody)
# heavy: B1 heavy with L236K, L237R, S241K, H270K, D272F, Y298G, S300G, N327H, S328K, H332A
# light: not shown
# notes: anti-IL6R IgG1, G1d with L234K/L235R/S239K/H268K/D270F/Q295M/Y296G/S298G/N325H (EU)
# B14: TS24 (antibody)
# heavy: B1 heavy with H332Y
# light: not shown
# notes: anti-IL6R IgG1, G1d with Q295M/K326S/A330Y (EU)
# B15: TS34 (antibody)
# heavy: B1 heavy with L236K, L237K, Y298G, S300G, N327G, S328K, H332A
# light: not shown
# notes: anti-IL6R IgG1, G1d with L234K/L235K/Q295M/Y296G/S298G/N325G (EU)
# B16: TS30 (antibody)
# heavy: B1 heavy with L236K, L237K, S241K, Y298G, S300G, N327G, S328K, H332A
# light: not shown
# notes: anti-IL6R IgG1, G1d with L234K/L235K/S239K/Q295M/Y296G/S298G/N325G (EU)
# B17: TS33 (antibody)
# heavy: B1 heavy with L236K, L237K, H270K, D272F, Y298G, S300G, N327H, S328K, H332A
# light: not shown
# notes: anti-IL6R IgG1, G1d with L234K/L235K/H268K/D270F/Q295M/Y296G/S298G/N325H (EU)
# B18: TS32 (antibody)
# heavy: B1 heavy with L236K, L237K, H270K, D272F, Y298G, S300G, N327G, S328K, H332A
# light: not shown
# notes: anti-IL6R IgG1, G1d with L234K/L235K/H268K/D270F/Q295M/Y296G/S298G/N325G (EU)
# B19: TS22 (antibody)
# heavy: B1 heavy with M297L
# light: not shown
# notes: anti-IL6R IgG1, G1d with Q295L/K326S/A330H (EU)
# B20: TS23 (antibody)
# heavy: B1 heavy with M297L, S328A, H332Y
# light: not shown
# notes: anti-IL6R IgG1, G1d with Q295L/K326A/A330Y (EU)
# Biological target: T4, human Fcγ receptor hFcgRIa (human, UniProt P12314 16-292, limits assumed)
# T4 construct: Construct used in the SPR assay is not described; also called hFcγRIa; FcγI
# Experiment: SPR, antibody captured on Protein A
# Method: (§1) Furthermore, binding ability to hFcgRs was measured by the method described in Reference Example 3.
# (§2) Interactions between antibodies and hFcgRs (hFcgRIa, hFcgRIIa(R), hFcgRIIa(H), hFcgRIIb, hFcgRIIIa(F), and hFcgRIIIa(V)) were analyzed using Biacore T100 (GE Healthcare). HBS-EP+(GE Healthcare) was used for the running buffer, and the measurement temperature was set at 25° C. Protein A (Invitrogen) was immobilized by the amino coupling method, and an antibody of interest was captured thereon. Then, hFcγR solutions diluted using the running buffer were injected to allow interaction with the captured antibody at a flow rate of 30 μL/min for five minutes for hFcγRIa, and at a flow rate of 5 μL/min for one minute for the other hFcγRs. […] Since the hFcγR binding level depends on the amount of captured antibodies, the FcgR-binding levels were corrected so that the capture level of each antibody would be 200 RU (resonance unit) for hFcgRIa and 1000 RU (resonance unit) for the other hFcgRs. The captured antibodies were washed by allowing 10 mM glycine-HCl (pH 1.5) to react for 30 seconds at a flow rate of 30 μL/min to recycle the chip for reuse.
# T4 sequence (P12314 16-292 limits assumed): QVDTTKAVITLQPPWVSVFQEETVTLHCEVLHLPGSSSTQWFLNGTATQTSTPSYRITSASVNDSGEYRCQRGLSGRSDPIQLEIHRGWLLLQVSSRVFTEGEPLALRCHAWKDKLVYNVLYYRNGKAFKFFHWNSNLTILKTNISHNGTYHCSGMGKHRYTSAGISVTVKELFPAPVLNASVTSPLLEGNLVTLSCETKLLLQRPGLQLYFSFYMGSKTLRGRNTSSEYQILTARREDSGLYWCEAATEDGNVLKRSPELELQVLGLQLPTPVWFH
row,Binder,binding relative to G1 (=100)
1,B1,106
2,B2,5.8
3,B3,0.5
4,B4,0.3
5,B5,105
6,B6,5.1
7,B7,0
8,B8,107
9,B9,107
10,B10,0.2
11,B11,106
12,B12,-0.4
13,B13,0.6
14,B14,107
15,B15,-0.9
16,B16,0.1
17,B17,-0.9
18,B18,-0.5
19,B19,108

# Biological target: T1, human Fcγ receptor hFcgRIIb
# Experiment: SPR, antibody captured on Protein A
# Method: as §1, §2
row,Binder,binding relative to G1 (=100)
1,B1,131
2,B5,137
3,B7,2.5
4,B20,226
5,B8,208
6,B9,121
7,B10,3.6
8,B11,242
9,B12,4.1
10,B13,4.5
11,B14,114
12,B15,4.2
13,B16,3.8
14,B17,4.6
15,B18,1.5
16,B19,232

# Biological target: T2, human Fcγ receptor hFcgRIIa (H)
# Experiment: SPR, antibody captured on Protein A
# Method: as §1, §2
row,Binder,binding relative to G1 (=100)
1,B1,132
2,B2,1.7
3,B3,1.7
4,B4,1.7
5,B5,125
6,B6,0.7
7,B7,1
8,B20,145
9,B10,-0.5
10,B11,151
11,B12,0.7
12,B13,0.7
13,B14,122
14,B15,1.4
15,B16,0.2
16,B17,0.7
17,B18,1
18,B19,157

# Biological target: T5, human Fcγ receptor hFcgRIIIa (V) (human, UniProt P08637 17-208)
# T5 construct: also called FcγRIIIa allotype V158; FcγIIIA
# Experiment: SPR, antibody captured on Protein A
# Method: as §1, §2
# T5 sequence (P08637 other isoform, or with tags, fused parts or gaps limits assumed): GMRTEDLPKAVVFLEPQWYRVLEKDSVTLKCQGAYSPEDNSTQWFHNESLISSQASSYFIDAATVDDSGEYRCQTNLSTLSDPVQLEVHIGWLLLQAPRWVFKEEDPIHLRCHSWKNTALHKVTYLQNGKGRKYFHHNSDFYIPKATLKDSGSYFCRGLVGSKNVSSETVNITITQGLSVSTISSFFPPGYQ
row,Binder,binding relative to G1 (=100)
1,B1,91.2
2,B2,1.7
3,B3,1.5
4,B4,0.9
5,B5,92.8
6,B6,1.6
7,B7,0.8
8,B20,137
9,B8,134
10,B9,124
11,B10,1.2
12,B12,1.1
13,B13,0.6
14,B14,121
15,B15,1.5
16,B16,1.1
17,B17,1
18,B18,0.9
19,B19,107

# Biological target: T3, human Fcγ receptor hFcgRIIa (R)
# Experiment: SPR, antibody captured on Protein A
# Method: as §1, §2
row,Binder,binding relative to G1 (=100)
1,B1,116
2,B2,1.9
3,B3,1.1
4,B4,2.3
5,B5,123
6,B6,2.1
7,B7,1.5
8,B20,153
9,B8,145
10,B9,113
11,B10,1.3
12,B11,158
13,B12,1
14,B13,0.9
15,B14,107
16,B15,0.9
17,B16,1.2
18,B17,1.2
19,B18,0.9
20,B19,153
